According to patent publication US20200148784A1 (AGILVAX, published 2020):

T1: human-xCT ECD3 peptide (human)
T1 construct: Coated at 1 µg/mL
T1 peptide: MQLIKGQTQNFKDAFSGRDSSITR

B1: 11D1/H10 subclone A1 (antibody)
heavy: QVQLQQSGAELVRPGASVKLSCKALGYTFTDYEMHWVKQTPVHGLEWIGAIHPGSGGTAYNQKFKGKATLTADKSSSTAYMELSSLTSEDSAVYYCTRPLYYRYPYYFDYWGQGTTLTVSSESQSFPNVFPLVSCESPLSDKNLVAMGCLARDFLPSTISFTWNYQNNTEVIQGIRTFPTLRTGGKYLATSQVLLSPKSILEGSDEYLVCKIHYGGKNRDLHVPIPAVAEMNPNVNVFVPPRDGFSGPAPRKSKLICEATNFTPKPITVSWLKDGKLVESGFTTDPVTIENKGSTPQTYKVISTLTISEIDWLNLNVYTCRVDHRGLTFLKNVSSTCAASPSTDILTFTIPPSFADIFLSKSANLTCLVSNLATYETLNISWASQSGEPLETKIKIMESHPNGTFSAKGVASVCVEDWNNRKEFVCTVTHRDLPSPQKKFISKPNEVHKHPPAVYLLPPAREQLNLRESATVTCLVKGFSPADISVQWLQRGQLLPQEKYVTSAPMPEPGAPGFYFTHSILTVTEEEWNSGETYTCVVGHEALPHLVTERTVDKSTGKPTLYNVSLIMSDTGGTCY
light: QIVLTQSPAIMSASPGEKVTISCSASSSVSYMYWYQQKPGSSPKPWIYRTSNLASGVPARFSGSGSGTSYSLTISSMEAEDAATYYCQQYHSYPLTFGAGTKLELKRADAAPTVSIFPPSSEQLTSGGASVVCFLNNFYPKDINVKWKIDGSERQNGVLNSWTDQDSKDSTYSMSSTLTLTKDEYERHNSYTCEATHKTSTSPIVKSFNRNEC
B2: 11D1/H10 subclone A5 (antibody)
heavy: B1 heavy
light: B1 light
notes: IgM kappa
B3: 11D1/H10 subclone E1 (antibody)
heavy: B1 heavy
light: B1 light
notes: IgM kappa
B4: 11D1/H10 subclone B9 (antibody)
heavy: B1 heavy
light: B1 light
notes: IgM kappa
B5: 11D1/H10 subclone D5 (antibody)
heavy: B1 heavy
light: B1 light
notes: IgM kappa

Target: T1, human-xCT ECD3 peptide
Experiment: ELISA of subclone supernatant against xCT

| Binder | ELISA O.D. 450 |
| --- | --- |
| B1 | ≥ 0.4 |
| B2 | ≥ 0.4 |
| B3 | ≥ 0.4 |
| B4 | ≥ 0.4 |
| B5 | ≥ 0.4 |
